Laboratory results from paper PMC4072592.

Columns and labels:
[1] = biological target: N-PYM-GFP (S2 cells) (Drosophila) (UniProt P82804); test: co-IP; GFP-Trap beads on cytoplasmic extracts of S2 cells expressing GFP or GFP-tagged FL-, ΔC- or N-PYM, native conditions; blots of Mago and Y14 quantified by densitometry, coIP efficiency as percent of the GFP enrichment
[2] = biological target: ΔC-PYM-GFP (S2 cells) (Drosophila); test: co-IP + cross-linking; as the native GFP-Trap IP from S2 cell extracts, but extracts cross-linked with 1 mM DSP for 1 h at 4°C before the IP; blots quantified by densitometry
Chain of ΔC-PYM-GFP (S2 cells) (Drosophila) (P82804 whole entry, stated change not applied): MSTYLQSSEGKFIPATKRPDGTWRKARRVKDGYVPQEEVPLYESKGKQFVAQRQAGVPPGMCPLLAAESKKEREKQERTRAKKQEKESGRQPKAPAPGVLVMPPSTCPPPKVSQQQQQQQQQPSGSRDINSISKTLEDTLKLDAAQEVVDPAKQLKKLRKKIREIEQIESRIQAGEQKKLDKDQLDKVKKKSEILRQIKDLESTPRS

[3] = biological target: N-PYM-GFP (S2 cells) (Drosophila) (UniProt P82804); test: as above

Chain of Y14-Mago heterodimer, endogenous in S2 cells (Q9V535 whole entry): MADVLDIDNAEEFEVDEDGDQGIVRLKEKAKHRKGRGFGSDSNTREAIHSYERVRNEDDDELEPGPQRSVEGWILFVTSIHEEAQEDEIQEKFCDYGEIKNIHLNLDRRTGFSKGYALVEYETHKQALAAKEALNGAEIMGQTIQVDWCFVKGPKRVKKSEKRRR
Chain of Y14-Mago heterodimer, endogenous in S2 cells (P49028 whole entry): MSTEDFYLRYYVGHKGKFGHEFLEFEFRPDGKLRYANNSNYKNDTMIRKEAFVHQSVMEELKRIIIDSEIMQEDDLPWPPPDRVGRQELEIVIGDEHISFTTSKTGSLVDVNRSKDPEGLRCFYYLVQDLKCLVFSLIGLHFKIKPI
Chain of N-PYM-GFP (S2 cells) (Drosophila) (P82804 whole entry): as the sequence (P82804 whole entry, stated change not applied) above

Substance: Y14-Mago heterodimer, endogenous in S2 cells (from UniProt Q9V535 1-165; P49028 1-147) (complex)
- coIP efficiency of Mago (percent of the GFP enrichment), native [1]: 0.92%
- coIP efficiency of Mago (percent of the GFP enrichment), DSP cross-linked [2]: 98.9%
- fold increase of binding upon DSP treatment against native [2]: 3.6 fold
- coIP efficiency of Mago (percent of the GFP enrichment), DSP cross-linked [3]: 84.9%
